Experiments:
Assay in all cases: immunostaining of cells or tissue
Conditions in all cases: one partner purified
[1] = target: Reston ebolavirus glycoprotein (RESTV GP) (Reston ebolavirus, isolate ; …, UniProt Q66799)
[2] = target: T1, Zaire ebolavirus glycoprotein (EBOV GP), full-length transmembrane, Mayinga (Zaire ebolavirus (EBOV), Mayinga, UniProt Q05320)
T1 construct: source: MDCK SIAT-1 cells expressing EBOV GP, on the cell surface

[3] = target: T2, Bundibugyo ebolavirus glycoprotein (BDBV GP), full-length transmembrane (Bundibugyo ebolavirus (YP_003815435.1), UniProt B8XCN0)
T2 construct: source: MDCK SIAT-1 cells expressing BDBV GP, on the cell surface

[4] = target: T3, Sudan ebolavirus glycoprotein (SUDV GP), full-length transmembrane (Sudan ebolavirus (SUDV), UniProt Q7T9D9)
T3 construct: source: MDCK SIAT-1 cells expressing SUDV GP, on the cell surface

[5] = target: Tai Forest ebolavirus glycoprotein (TAFV GP) (Tai Forest ebolavirus (TAFV), UniProt Q66810)

Measured: binding result

B1: mAb 11883, recombinant rabbit IgG (antibody, V domains shown)
VH: QEQLVESGGGLVQPEGSLTLTCTASGFSFSSNCWRCWVRQAPGKGLEWIACVCAGRSGGTTYYASWAKGRFTISKTSSPTVTLQMTSLTAADTATYFCARAGYDDYGDASFFNLWGPGTLVTVS
VL: AVVLTQTASPVSTPVGGTVTIKCQASQNIYSNLAWYQQKPGQPPKLLIYSASTLASGVPSRFKGSGSGTEYTLTISDLECADAATYYCQRYYYLSGSADNTFGGGTEVVVK
notes: source: HEK293F, transfected, purified (Protein A); copies: 2 + 2
binds: all assays above

B2: mAb 11886, recombinant rabbit IgG (antibody, V domains shown)
VH: QSVEESGGRLVTPGTPLTLTCIVSGFSLSNYYMSWVRQVPGKGLEWIGVIGWSGTSSYASWAKGRFTISKTASTTVDLKITSPTTEDTATYFCARVLYIGGGFNYYDAFDPWGPGTLVTVS
VL: DVVMTQTPASVSEPVGGTVTIKCQASQSIGSNLAWYQQKPGQPPKLLIYAASTLASGVPSRFKGSGSGTEFTLTISDLECADAATYYCQCTYYDSSYVYNNFGGGTEVVVK
notes: as for B1
binds: all assays above

From publication doi:10.1101/2024.06.21.600001 (bioRxiv, 2024)
